Experimental data as given in patent US20210388040A1.

Assays:
[1] = biological target: ACTL6A (human) (UniProt O96019); assay: HA-bait purification from HEK-293T nuclear extract, mass spectrometry, peptide count
[2] = biological target: ACTL6B (human) (UniProt O94805); assay: as above
[3] = biological target: ARID2 (human) (UniProt Q68CP9); assay: as above
[4] = biological target: BCL7A (human) (UniProt Q4VC05); assay: as above
[5] = biological target: BCL7B (human) (UniProt Q9BQE9); assay: as above
[6] = biological target: BCL7C (human) (UniProt Q8WUZ0); assay: as above
[7] = biological target: DPF2 (human) (UniProt Q92785); assay: as above
[8] = biological target: PBRM1 (human) (UniProt Q86U86); assay: as above
[9] = biological target: PHF10 (human) (UniProt Q8WUB8); assay: as above
[10] = biological target: SMARCA2 (human) (UniProt P51531); assay: as above
[11] = biological target: SMARCA4 (human) (UniProt P51532); assay: as above
[12] = biological target: SMARCB1 (human) (UniProt Q12824); assay: as above
[13] = biological target: SMARCC1 (human) (UniProt Q92922); assay: as above
[14] = biological target: SMARCC2 (human) (UniProt Q8TAQ2); assay: as above
[15] = biological target: SMARCD2 (human) (UniProt Q92925); assay: as above
[16] = biological target: SMARCD3 (human) (UniProt Q6STE5); assay: as above
[17] = biological target: SMARCE1 (human) (UniProt Q969G3); assay: as above
[18] = biological target: GLTSCR1 (human) (UniProt Q9NZM4); assay: as above
[19] = biological target: GLTSCR1L (human) (UniProt Q6AI39); assay: as above
[20] = biological target: SMARCD1 (human) (UniProt Q96GM5); assay: as above
[21] = biological target: SS18 (human) (UniProt Q15532); assay: as above
[22] = biological target: ACTL6A (human) (UniProt O96019); assay: HA-bait purification from HEK-293T nuclear extract, glycerol gradient fractions 13-14, mass spectrometry, peptide count
[23] = biological target: ARID1A (human) (UniProt O14497); assay: as above
[24] = biological target: ARID1B (human) (UniProt Q8NFD5); assay: as above
[25] = biological target: BCL7A (human) (UniProt Q4VC05); assay: as above
[26] = biological target: BCL7C (human) (UniProt Q8WUZ0); assay: as above
[27] = biological target: SMARCA2 (human) (UniProt P51531); assay: as above
[28] = biological target: SMARCA4 (human) (UniProt P51532); assay: as above
[29] = biological target: SMARCB1 (human) (UniProt Q12824); assay: as above
[30] = biological target: SMARCC1 (human) (UniProt Q92922); assay: as above
[31] = biological target: SMARCC2 (human) (UniProt Q8TAQ2); assay: as above
[32] = biological target: SMARCD1 (human) (UniProt Q96GM5); assay: as above
[33] = biological target: SMARCD2 (human) (UniProt Q92925); assay: as above
[34] = biological target: SMARCD3 (human) (UniProt Q6STE5); assay: as above
[35] = biological target: SMARCE1 (human) (UniProt Q969G3); assay: as above
[36] = biological target: SS18 (human) (UniProt Q15532); assay: as above
[37] = biological target: SS18L1 (human) (UniProt O75177); assay: as above
Chain of SS18L1 (human) (O75177 whole entry): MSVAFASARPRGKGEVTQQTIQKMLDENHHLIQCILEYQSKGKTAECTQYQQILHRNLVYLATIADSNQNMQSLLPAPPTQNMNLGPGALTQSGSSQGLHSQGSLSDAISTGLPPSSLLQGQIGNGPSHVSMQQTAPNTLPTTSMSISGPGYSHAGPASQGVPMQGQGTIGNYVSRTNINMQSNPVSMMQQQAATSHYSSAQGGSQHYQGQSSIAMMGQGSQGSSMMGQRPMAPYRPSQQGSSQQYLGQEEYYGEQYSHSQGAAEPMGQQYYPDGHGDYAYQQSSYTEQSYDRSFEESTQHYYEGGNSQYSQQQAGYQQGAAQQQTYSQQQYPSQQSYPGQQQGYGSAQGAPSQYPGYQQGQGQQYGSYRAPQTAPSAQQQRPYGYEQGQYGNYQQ

Chain of SMARCC1 (human) (Q92922 other isoform, or with tags, fused parts or gaps limits assumed): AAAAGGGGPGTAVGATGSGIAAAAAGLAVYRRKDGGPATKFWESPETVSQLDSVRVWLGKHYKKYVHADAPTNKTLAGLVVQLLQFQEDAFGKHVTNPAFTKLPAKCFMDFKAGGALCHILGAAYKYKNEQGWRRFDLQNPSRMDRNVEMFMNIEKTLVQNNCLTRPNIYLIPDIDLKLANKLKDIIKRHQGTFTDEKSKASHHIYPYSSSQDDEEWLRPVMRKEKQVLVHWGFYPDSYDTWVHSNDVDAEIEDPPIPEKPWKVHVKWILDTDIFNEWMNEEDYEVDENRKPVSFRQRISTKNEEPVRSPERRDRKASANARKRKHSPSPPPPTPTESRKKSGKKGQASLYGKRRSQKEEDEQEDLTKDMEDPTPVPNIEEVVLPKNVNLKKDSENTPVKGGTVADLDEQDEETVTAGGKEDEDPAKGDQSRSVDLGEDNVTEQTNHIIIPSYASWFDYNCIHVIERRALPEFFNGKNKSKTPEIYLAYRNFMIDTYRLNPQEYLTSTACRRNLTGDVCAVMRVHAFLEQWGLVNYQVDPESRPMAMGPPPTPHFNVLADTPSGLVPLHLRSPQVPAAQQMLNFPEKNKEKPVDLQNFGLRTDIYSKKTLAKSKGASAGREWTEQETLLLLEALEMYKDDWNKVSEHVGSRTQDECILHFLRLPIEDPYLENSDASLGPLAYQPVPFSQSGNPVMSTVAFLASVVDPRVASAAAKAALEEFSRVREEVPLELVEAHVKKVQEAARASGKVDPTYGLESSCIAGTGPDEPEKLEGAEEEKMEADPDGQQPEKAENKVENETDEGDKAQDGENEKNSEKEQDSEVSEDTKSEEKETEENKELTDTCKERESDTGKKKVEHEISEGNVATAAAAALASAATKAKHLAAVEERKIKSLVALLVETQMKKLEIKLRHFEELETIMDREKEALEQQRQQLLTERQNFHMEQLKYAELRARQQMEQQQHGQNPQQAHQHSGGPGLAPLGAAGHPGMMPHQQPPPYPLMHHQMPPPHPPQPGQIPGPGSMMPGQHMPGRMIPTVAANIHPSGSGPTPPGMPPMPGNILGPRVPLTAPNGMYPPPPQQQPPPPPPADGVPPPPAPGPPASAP
Chain of SMARCE1 (human) (Q969G3 whole entry): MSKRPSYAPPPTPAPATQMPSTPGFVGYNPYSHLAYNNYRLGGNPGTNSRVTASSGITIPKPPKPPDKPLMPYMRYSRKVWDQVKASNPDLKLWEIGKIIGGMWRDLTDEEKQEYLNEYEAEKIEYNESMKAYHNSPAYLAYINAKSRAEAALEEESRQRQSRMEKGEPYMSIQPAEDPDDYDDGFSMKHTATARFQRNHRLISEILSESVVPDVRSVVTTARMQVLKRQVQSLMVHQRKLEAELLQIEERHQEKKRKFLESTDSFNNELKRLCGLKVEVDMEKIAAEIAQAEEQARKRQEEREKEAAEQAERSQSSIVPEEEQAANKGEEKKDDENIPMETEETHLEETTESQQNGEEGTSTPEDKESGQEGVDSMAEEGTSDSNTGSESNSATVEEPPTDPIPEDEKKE
Chain of SMARCD1 (human) (Q96GM5 whole entry): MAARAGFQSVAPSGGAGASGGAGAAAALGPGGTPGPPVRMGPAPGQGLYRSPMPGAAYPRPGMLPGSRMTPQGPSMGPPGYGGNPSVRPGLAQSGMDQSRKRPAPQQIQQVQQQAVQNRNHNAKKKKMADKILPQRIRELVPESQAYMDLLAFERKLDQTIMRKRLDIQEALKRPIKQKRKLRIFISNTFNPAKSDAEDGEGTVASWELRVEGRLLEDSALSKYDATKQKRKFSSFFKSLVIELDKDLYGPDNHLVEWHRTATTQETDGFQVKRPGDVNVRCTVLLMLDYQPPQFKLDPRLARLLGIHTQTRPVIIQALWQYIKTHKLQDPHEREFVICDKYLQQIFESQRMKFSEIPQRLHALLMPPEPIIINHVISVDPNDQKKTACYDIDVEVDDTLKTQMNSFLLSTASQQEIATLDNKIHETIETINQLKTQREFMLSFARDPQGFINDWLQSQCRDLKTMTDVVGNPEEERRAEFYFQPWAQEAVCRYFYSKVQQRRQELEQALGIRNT
Chain of SS18 (human) (Q15532 2-418 limits assumed): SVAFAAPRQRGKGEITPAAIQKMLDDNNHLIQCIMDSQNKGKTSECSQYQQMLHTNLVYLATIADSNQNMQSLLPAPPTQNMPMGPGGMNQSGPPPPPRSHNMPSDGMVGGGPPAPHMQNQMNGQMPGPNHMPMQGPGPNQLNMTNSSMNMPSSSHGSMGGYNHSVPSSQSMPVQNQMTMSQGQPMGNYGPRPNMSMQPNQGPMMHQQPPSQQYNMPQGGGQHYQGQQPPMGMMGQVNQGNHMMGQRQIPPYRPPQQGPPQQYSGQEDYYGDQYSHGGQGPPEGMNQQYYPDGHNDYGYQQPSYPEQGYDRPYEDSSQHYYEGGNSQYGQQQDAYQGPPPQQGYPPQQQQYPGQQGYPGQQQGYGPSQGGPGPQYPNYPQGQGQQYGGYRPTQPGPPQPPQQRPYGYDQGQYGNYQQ
Chain of ACTL6A (human) (O96019 2-429 limits assumed): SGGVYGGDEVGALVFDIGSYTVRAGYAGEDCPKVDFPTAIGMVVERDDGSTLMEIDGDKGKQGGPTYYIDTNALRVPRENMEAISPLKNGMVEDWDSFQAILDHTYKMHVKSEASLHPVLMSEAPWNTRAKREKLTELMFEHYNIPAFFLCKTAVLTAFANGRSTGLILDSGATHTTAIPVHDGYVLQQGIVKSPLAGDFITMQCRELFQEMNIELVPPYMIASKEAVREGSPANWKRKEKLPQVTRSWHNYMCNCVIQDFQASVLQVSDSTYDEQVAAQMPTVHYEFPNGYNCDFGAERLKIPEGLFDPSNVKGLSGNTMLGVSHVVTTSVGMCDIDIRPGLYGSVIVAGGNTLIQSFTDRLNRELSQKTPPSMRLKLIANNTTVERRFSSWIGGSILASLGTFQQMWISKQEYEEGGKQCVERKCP
Chain of SMARCD2 (human) (Q92925 whole entry): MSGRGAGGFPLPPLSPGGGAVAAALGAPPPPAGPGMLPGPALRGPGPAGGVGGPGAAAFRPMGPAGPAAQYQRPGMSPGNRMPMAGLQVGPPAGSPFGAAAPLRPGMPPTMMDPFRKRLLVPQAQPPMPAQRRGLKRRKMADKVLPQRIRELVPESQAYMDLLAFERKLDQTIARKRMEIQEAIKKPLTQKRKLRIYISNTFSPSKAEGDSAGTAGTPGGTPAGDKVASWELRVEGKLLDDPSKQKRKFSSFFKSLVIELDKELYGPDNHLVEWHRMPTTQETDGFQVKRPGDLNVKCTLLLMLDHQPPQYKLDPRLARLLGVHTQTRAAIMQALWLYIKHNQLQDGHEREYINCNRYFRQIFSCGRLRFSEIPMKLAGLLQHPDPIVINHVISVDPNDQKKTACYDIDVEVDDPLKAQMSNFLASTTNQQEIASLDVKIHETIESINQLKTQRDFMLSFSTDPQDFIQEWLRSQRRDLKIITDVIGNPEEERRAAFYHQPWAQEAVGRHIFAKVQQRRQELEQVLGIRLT
Chain of SMARCD3 (human) (Q6STE5 2-483 limits assumed): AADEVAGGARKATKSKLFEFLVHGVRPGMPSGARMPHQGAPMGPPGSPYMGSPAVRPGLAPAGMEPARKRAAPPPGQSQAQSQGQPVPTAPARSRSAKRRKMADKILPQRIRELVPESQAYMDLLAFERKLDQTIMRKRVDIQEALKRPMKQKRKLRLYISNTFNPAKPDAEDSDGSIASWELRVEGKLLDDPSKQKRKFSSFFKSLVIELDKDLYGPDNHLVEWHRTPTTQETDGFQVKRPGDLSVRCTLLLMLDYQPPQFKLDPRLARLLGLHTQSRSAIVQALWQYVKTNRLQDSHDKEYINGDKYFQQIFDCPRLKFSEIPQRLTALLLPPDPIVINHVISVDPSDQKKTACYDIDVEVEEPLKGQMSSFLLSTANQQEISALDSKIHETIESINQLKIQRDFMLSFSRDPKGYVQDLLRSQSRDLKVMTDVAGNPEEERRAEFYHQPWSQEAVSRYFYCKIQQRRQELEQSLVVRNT
Chain of BCL7A (human) (Q4VC05 whole entry): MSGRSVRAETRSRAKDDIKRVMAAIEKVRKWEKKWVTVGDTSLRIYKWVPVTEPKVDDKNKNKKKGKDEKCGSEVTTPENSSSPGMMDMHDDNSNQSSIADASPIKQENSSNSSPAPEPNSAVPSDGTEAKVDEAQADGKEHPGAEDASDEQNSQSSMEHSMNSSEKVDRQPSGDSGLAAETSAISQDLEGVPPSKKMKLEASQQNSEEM
Chain of SMARCB1 (human) (Q12824 whole entry): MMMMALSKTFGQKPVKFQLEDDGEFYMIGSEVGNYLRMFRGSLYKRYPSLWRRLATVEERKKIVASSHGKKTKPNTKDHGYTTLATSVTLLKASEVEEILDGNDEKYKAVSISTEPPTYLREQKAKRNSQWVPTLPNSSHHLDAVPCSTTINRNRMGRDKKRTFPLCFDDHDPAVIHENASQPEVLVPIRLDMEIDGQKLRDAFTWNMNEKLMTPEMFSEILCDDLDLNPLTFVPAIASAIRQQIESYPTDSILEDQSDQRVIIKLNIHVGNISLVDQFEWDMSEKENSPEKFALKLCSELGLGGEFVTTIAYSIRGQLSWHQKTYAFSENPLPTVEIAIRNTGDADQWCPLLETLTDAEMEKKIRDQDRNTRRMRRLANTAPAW

Substance: HA-BRD7 (from UniProt Q9NPI1 1-651)
- Total [1]: 44 peptides
- Unique [1]: 28 peptides
- Total [2]: 1 peptides
- Unique [2]: 1 peptides
- Total [3]: 157 peptides
- Unique [3]: 67 peptides
- Total [4]: 36 peptides
- Unique [4]: 21 peptides
- Total [5]: 4 peptides
- Unique [5]: 3 peptides
- Total [6]: 17 peptides
- Unique [6]: 10 peptides
- Total [7]: 1 peptides
- Unique [7]: 1 peptides
- Total [8]: 404 peptides
- Unique [8]: 147 peptides
- Total [9]: 58 peptides
- Unique [9]: 31 peptides
- Total [10]: 146 peptides
- Unique [10]: 85 peptides
- Total [11]: 107 peptides
- Unique [11]: 53 peptides
- Total [12]: 59 peptides
- Unique [12]: 26 peptides
- Total [13]: 203 peptides
- Unique [13]: 83 peptides
- Total [14]: 136 peptides
- Unique [14]: 64 peptides
- Total [15]: 59 peptides
- Unique [15]: 34 peptides
- Total [16]: 23 peptides
- Unique [16]: 20 peptides
- Total [17]: 81 peptides
- Unique [17]: 40 peptides

Substance: HA-BRD9 (from UniProt Q9H8M2 1-597)
- Unique [1]: 10 peptides
- Total [4]: 6 peptides
- Unique [4]: 5 peptides
- Total [6]: 3 peptides
- Unique [6]: 3 peptides
- Total [18]: 62 peptides
- Unique [18]: 33 peptides
- Total [19]: 16 peptides
- Unique [19]: 14 peptides
- Total [10]: 49 peptides
- Unique [10]: 27 peptides
- Total [11]: 31 peptides
- Unique [11]: 20 peptides
- Total [13]: 53 peptides
- Unique [13]: 36 peptides
- Total [20]: 33 peptides
- Unique [20]: 22 peptides
- Total [21]: 1 peptides
- Unique [21]: 1 peptides

Substance: HA-DPF2 (from UniProt Q92785 1-391)
- Total [22]: 61 peptides
- Unique [22]: 23 peptides
- Total [23]: 311 peptides
- Unique [23]: 114 peptides
- Total [24]: 147 peptides
- Unique [24]: 85 peptides
- Total [25]: 36 peptides
- Total [26]: 13 peptides
- Unique [26]: 7 peptides
- Total [27]: 130 peptides
- Unique [27]: 74 peptides
- Total [28]: 88 peptides
- Unique [28]: 47 peptides
- Total [29]: 62 peptides
- Unique [29]: 22 peptides
- Total [30]: 359 peptides
- Unique [30]: 87 peptides
- Total [31]: 105 peptides
- Unique [31]: 52 peptides
- Total [32]: 83 peptides
- Unique [32]: 37 peptides
- Total [33]: 51 peptides
- Unique [33]: 32 peptides
- Total [34]: 23 peptides
- Unique [34]: 20 peptides
- Total [35]: 118 peptides
- Unique [35]: 40 peptides
- Total [36]: 2 peptides
- Unique [36]: 2 peptides
- Total [37]: 3 peptides
- Unique [37]: 2 peptides
